According to the Human Domainome abundance scans (Beltran et al. 2025):
± gives the uncertainty stated by the source.

B1: Zinc finger homeobox protein 4, residues 2562 to 2617; numbered along this chain, Q86UP3 (parent)
chain: RLRTTITPEQLEILYEKYLLDSNPTRKMLDHIAREVGLKKRVVQVWFQNTRARERK

Variants of: B1
Assay: abundance fitness (aPCA) (normalised: wild type 0, dead -1); higher = more abundant; growth selection in yeast, the domain comes from the species named
Details: Homo sapiens

| Variant | abundance fitness |
| --- | --- |
| RLRTTITPEQLEILYEKYLLDSNPTRKMLDHIAQEVGLKKRVVQVWFQNTRARERK [R34Q] | 0.107 ± 0.06 |
| RLRTTITPEQLEILYEKYLLDSNPTRKMLDHIACEVGLKKRVVQVWFQNTRARERK [R34C] | -0.223 ± 0.17 |
| RLRTTITPEQLEILYEKYLLDSNPTRKMLDHIAHEVGLKKRVVQVWFQNTRARERK [R34H] | -0.162 ± 0.16 |
| RLRTTITPEQLEILYEKYLLDSNPTRKMLDHIDREVGLKKRVVQVWFQNTRARERK [A33D] | -0.526 ± 0.33 |
| RLRTTITPEQLEILYEKYLLDSNPTRKMLDHIHREVGLKKRVVQVWFQNTRARERK [A33H] | -0.86 ± 0.14 |
| RLRTTITPEQLEILYEKYLLDSNPTRKMLDHILREVGLKKRVVQVWFQNTRARERK [A33L] | -0.732 ± 0.2 |
| RLRTTITPEQLEILYEKYLLDSNPTRKMLDHIPREVGLKKRVVQVWFQNTRARERK [A33P] | -0.563 ± 0.2 |
| RLRTTITPEQLEILYEKYLLDSNPTRKMLDHIRREVGLKKRVVQVWFQNTRARERK [A33R] | -0.541 ± 0.18 |
| RLRTTITPEQLEILYEKYLLDSNPTRKMLDHIQREVGLKKRVVQVWFQNTRARERK [A33Q] | -0.669 ± 0.45 |
| RLRTTITPEQLEILYEKYLLDSNPTRKMLDHICREVGLKKRVVQVWFQNTRARERK [A33C] | -0.003 ± 0.36 |
| RLRTTITPEQLEILYEKYLLDSNPTRKMLDHITREVGLKKRVVQVWFQNTRARERK [A33T] | -0.331 ± 0.22 |
| RLRTTITPEQLEILYEKYLLDSNPTRKMLDHIGREVGLKKRVVQVWFQNTRARERK [A33G] | -0.344 ± 0.07 |
| RLRTTITPEQLEILYEKYLLDSNPTRKMLDHISREVGLKKRVVQVWFQNTRARERK [A33S] | -0.158 ± 0.18 |
| RLRTTITPEQLEILYEKYLLDSNPTRKMLDHIEREVGLKKRVVQVWFQNTRARERK [A33E] | -0.352 ± 0.21 |
| RLRTTITPEQLEILYEKYLLDSNPTRKMLDHIWREVGLKKRVVQVWFQNTRARERK [A33W] | -0.696 ± 0.4 |
| RLRTTITPEQLEILYEKYLLDSNPTRKMLDHQAREVGLKKRVVQVWFQNTRARERK [I32Q] | -1.24 ± 0.27 |
| RLRTTITPEQLEILYEKYLLDSNPTRKMLDHAAREVGLKKRVVQVWFQNTRARERK [I32A] | -0.786 ± 0.18 |
| RLRTTITPEQLEILYEKYLLDSNPTRKMLDHEAREVGLKKRVVQVWFQNTRARERK [I32E] | -0.998 ± 0.18 |
| RLRTTITPEQLEILYEKYLLDSNPTRKMLDHWAREVGLKKRVVQVWFQNTRARERK [I32W] | -0.23 ± 0.12 |
| RLRTTITPEQLEILYEKYLLDSNPTRKMLDHTAREVGLKKRVVQVWFQNTRARERK [I32T] | -0.405 ± 0.076 |
| RLRTTITPEQLEILYEKYLLDSNPTRKMLDHKAREVGLKKRVVQVWFQNTRARERK [I32K] | -0.796 ± 0.24 |
| RLRTTITPEQLEILYEKYLLDSNPTRKMLDHLAREVGLKKRVVQVWFQNTRARERK [I32L] | -0.15 ± 0.069 |
| RLRTTITPEQLEILYEKYLLDSNPTRKMLDHMAREVGLKKRVVQVWFQNTRARERK [I32M] | -0.366 ± 0.15 |
| RLRTTITPEQLEILYEKYLLDSNPTRKMLDHVAREVGLKKRVVQVWFQNTRARERK [I32V] | -0.204 ± 0.055 |

| Variant | abundance fitness |
| --- | --- |
| RLRTTITPEQLEILYEKYLLDSNPTRKMLDHCAREVGLKKRVVQVWFQNTRARERK [I32C] | -0.518 ± 0.072 |
| RLRTTITPEQLEILYEKYLLDSNPTRKMLDHFAREVGLKKRVVQVWFQNTRARERK [I32F] | -0.377 ± 0.18 |
| RLRTTITPEQLEILYEKYLLDSNPTRKMLDHRAREVGLKKRVVQVWFQNTRARERK [I32R] | -1.08 ± 0.12 |
| RLRTTITPEQLEILYEKYLLDSNPTRKMLDHSAREVGLKKRVVQVWFQNTRARERK [I32S] | -1.27 ± 0.32 |
| RLRTTITPEQLEILYEKYLLDSNPTRKMLDHGAREVGLKKRVVQVWFQNTRARERK [I32G] | -0.945 ± 0.16 |
| RLRTTITPEQLEILYEKYLLDSNPTRKMLDHYAREVGLKKRVVQVWFQNTRARERK [I32Y] | -0.208 ± 0.085 |
| RLRTTITPEQLEILYEKYLLDSNPTRKMLDMIAREVGLKKRVVQVWFQNTRARERK [H31M] | -0.169 ± 0.15 |
| RLRTTITPEQLEILYEKYLLDSNPTRKMLDTIAREVGLKKRVVQVWFQNTRARERK [H31T] | 0.206 ± 0.08 |
| RLRTTITPEQLEILYEKYLLDSNPTRKMLDLIAREVGLKKRVVQVWFQNTRARERK [H31L] | -0.112 ± 0.087 |
| RLRTTITPEQLEILYEKYLLDSNPTRKMLDSIAREVGLKKRVVQVWFQNTRARERK [H31S] | 0.233 ± 0.086 |
| RLRTTITPEQLEILYEKYLLDSNPTRKMLDRIAREVGLKKRVVQVWFQNTRARERK [H31R] | -0.129 ± 0.071 |
| RLRTTITPEQLEILYEKYLLDSNPTRKMLDIIAREVGLKKRVVQVWFQNTRARERK [H31I] | 0.205 ± 0.15 |
| RLRTTITPEQLEILYEKYLLDSNPTRKMLDEIAREVGLKKRVVQVWFQNTRARERK [H31E] | 0.426 ± 0.095 |
| RLRTTITPEQLEILYEKYLLDSNPTRKMLDFIAREVGLKKRVVQVWFQNTRARERK [H31F] | -0.266 ± 0.16 |
| RLRTTITPEQLEILYEKYLLDSNPTRKMLDKIAREVGLKKRVVQVWFQNTRARERK [H31K] | 0.146 ± 0.095 |
| RLRTTITPEQLEILYEKYLLDSNPTRKMLDYIAREVGLKKRVVQVWFQNTRARERK [H31Y] | -0.201 ± 0.33 |
| RLRTTITPEQLEILYEKYLLDSNPTRKMLDAIAREVGLKKRVVQVWFQNTRARERK [H31A] | 0.042 ± 0.082 |
| RLRTTITPEQLEILYEKYLLDSNPTRKMLDWIAREVGLKKRVVQVWFQNTRARERK [H31W] | -0.119 ± 0.11 |
| RLRTTITPEQLEILYEKYLLDSNPTRKMLDGIAREVGLKKRVVQVWFQNTRARERK [H31G] | -0.004 ± 0.074 |
| RLRTTITPEQLEILYEKYLLDSNPTRKMLDDIAREVGLKKRVVQVWFQNTRARERK [H31D] | 0.05 ± 0.1 |
| RLRTTITPEQLEILYEKYLLDSNPTRKMLDQIAREVGLKKRVVQVWFQNTRARERK [H31Q] | 0.176 ± 0.11 |
| RLRTTITPEQLEILYEKYLLDSNPTRKMLDCIAREVGLKKRVVQVWFQNTRARERK [H31C] | 0.052 ± 0.23 |
| RLRTTITPEQLEILYEKYLLDSNPTRKMLDNIAREVGLKKRVVQVWFQNTRARERK [H31N] | -0.335 ± 0.25 |
